Assay results as given in patent publication US20240409645A1.
Positions count from the first letter of the chain named.

T1: mouse IL-2Rβ (mouse) (UniProt P16297)
T1 sequence (looked up): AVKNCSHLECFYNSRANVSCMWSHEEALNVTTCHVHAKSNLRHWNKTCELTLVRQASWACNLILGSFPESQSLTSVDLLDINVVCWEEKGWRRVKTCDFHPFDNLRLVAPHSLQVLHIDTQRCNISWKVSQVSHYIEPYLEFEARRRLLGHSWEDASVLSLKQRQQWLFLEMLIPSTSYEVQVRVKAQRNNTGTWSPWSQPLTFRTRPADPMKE

B1: FJ1427 P035MP02E02 (VHH)
VHH: EVQLVESGGGLVQTGGSLRLSCAASGSQFINDVMGWYRQVPGKQRELVADMDDTGSTKYADSVKGRFTILRDSVKNTAYLQMSNLKPEDTGVYYCKAGLWIKGRHSDYWGQGTQVTVSS
B2: FJ1427_P035MP02H01 (VHH)
VHH: QVQLVESGGGLVQPGGSLGLSCAASGFTFDNYAMSWVRQAPGKGLEWVSSITGAGRGTHYADSVKGRFTISRDNAKNTLYLQMNSLKPEDTAVYYCAKYSSSTYYPPTPARGTDYRGPGTQVTVSS
B3: FJ1427_P035MP02A02 (VHH)
VHH: B2 VHH with G19R, S35T, M83V, K98R, P107T, A110V, P118Q
B4: FJ1427_P035MP02A03 (VHH)
VHH: QVQLVESGGGLVQPGGSLRLSCAASGFTFSNYAMSWVRQAPGKGLEWVSSITGAGRGTYYAESVKGRFTISRDNDKNTLYLQMNSLKPEDTAVYYCAKYDSSTFYPPTPARGIADRGQGTRVTVSS
B5: FJ1427_P035MP02G01 (VHH)
VHH: QVQLVESGGGLVQTGGSLRLSCAVSGSRFISDVMGWYRQVPGKQRELVADMADGGSAKYADSVKGRFSILRDSAKNTVYLQMSSLKPEDTGIYYCKAGLWIAGRHSDYWGQGTQVTVSS
B6: FJ1427_P035MP02F01 (VHH)
VHH: B5 VHH with Q1E, A74V
B7: FJ1427_P035MP02B02 (VHH)
VHH: EVQLVESGGTLVQTGGSLRLSCVVSGSHFISDVMGWYRQVPGKQRELVADMADGGSAKYGDSVKGRFTIVRDSVKNTVYLQMSSLNPEDTGVYYCKAGLWIKGRHSDYWGQGTQVTVTS
B8: FJ1427 P035MP02G02 (VHH)
VHH: QVQLVESGGGLVQPGGSLRLSCAASGSHFISDVMGWYRQVPGKQRELVADMADGGSVKYGDSVKGRFTILRDSVKNTVTLQMSSLNPEDTGVYYCKAGLWITGRHFDYWGQGIQVTVTS
B9: FJ1427 P035MP02F02 (VHH)
VHH: EVQLVESGGGLVQAGGSLRLACALSGDVFVRYTMAWFRQAPGKEREFVASVTDSGRTTDYVASVQGRFTVSRDNNKNTVYLQMNSLKPEDTAVYYCAANTDYFQIRSLDRNTWGQGTQVTVSS
B10: FJ1427_P035MP02C02 (VHH)
VHH: QVQLVESGGGLVQPGGSLRLSCAASGSRFVSDFMGWYRQVPGKQRELVADMADGGSARYGDSVKGRFTILRDNMNSTAFLQMSSLKPEDTGVYYCKAGLWIAGRHFDYWGQGTQVTVSS
B11: FJ1427_P035MP02B03 (VHH)
VHH: B10 VHH with P14T, N73S, M74G, F79Y
B12: FJ1427 P035MP02D02 (VHH)
VHH: QVQLVESGGGLVQVGGSLSVSCAASGRSFDSITMAYFRQAPGNEREFIAGINFSGSRTAYGDSVKGRFTISRDNAKNTVFLQMNSLNPEDTAVYYCAASPRGFYGPGHALYDYWGQGTQVTVSS
B13: FJ1427_P035MP02D03 (VHH)
VHH: QVQLVESGGGLVQAGGPLRLSCAASGGTFSSYAMGWFRQAPGKEREFVAATTRGGGRTMYAVSTEGRFTCSRDNAKNTVYLLMNSLKPEDTAVYYCAAMTSYYSGTYYPDSSDFDIWGQGTQVTVSS
B14: FJ1427_P035MP02E01 (VHH)
VHH: EVQLVESGGGLVQIGGSLRLSCAASGRTFSSITMAYFRQVPGKEREWVAGINFSGTRTFYADSVKGRFLISRDDAKSTMYLQMNSLKPEDTAVYYCAASPRGFYGPGNALYDYWGQGTQVTVSS
B15: FJ1427 P035MP02A12 (VHH)
VHH: QVQLQESGGGLVQAGGSLRLSCAVSGRSFRNYVMGWFRQAPGREREIVAGITQFTSTTYYDDSVKGRFTISRDNAKNTVYLQMNSLKPEDTALYYCAADRSIKMTADWAYWGQGTQVTVSS
B16: FJ1427_P035MP03F01 (VHH)
VHH: QVQLVESGGGLVQVGGSLRVSCAASGRTSGDRNMGWFRQAPGKEREFVGIITWSSGSTVYADSVKGRFTISRDNAKNTVYLDMSSLKPEDTAVYYCAADYYPYSGSWNIMDYWGKGTLVTVSS
B17: FJ1427_P035MP02H11 (VHH)
VHH: EVQLVESGGGLVQAGGSLRLSCAASGRTFSTTEMGWFRQAPGKEREFVAAITWTGRGTMYAESVEGRFTISRENAKNMVYLQMNSLKPEDTAIYYCAAARRGRAAVRSEGGYDFWGQGTQVAVSS
B18: FJ1427 P035MP02B12 (VHH)
VHH: QVQLVESGGGLVQAGGSLRLSCAASGRADSNAIMAWFRQAPGKEREFIVAVTYSGMPTYQDDSVQGRFTASRDNAKNTVYLQMNSLKPEDTAVYYCAARMYSASTYYGDYDYWGQGTQVTVSS
B19: FJ1427 P035MP03B01 (VHH)
VHH: B2 VHH with P14A, G19R, D30S, A54F, H59D, K98R, P118Q
B20: FJ1427 P035MP03D01 (VHH)
VHH: B2 VHH
B21: FJ1427_P035MP03H01 (VHH)
VHH: B7 VHH with E1Q, T10G, L11S, G60A, V70L, Y79T, K102T
B22: FJ1427_P035MP03B02 (VHH)
VHH: EVQLVESGGGLVQVGDSLRLSCAASGRTVGSANMGWFRQAPGKEREFVAVITWSTGSTVYADSVKGRFTISRDNAKNTVYLDMSSLKPDDTAVYYCAADVYPYSGNLNIMDYWGKGTLVTVSS
B23: FJ1427 P035MP03C02 (VHH)
VHH: B22 VHH with E1Q, D89E
B24: FJ1427_P035MP03E02 (VHH)
VHH: B12 VHH
B25: FJ1427 P035MP03D02 (VHH)
VHH: B5 VHH with V5Q, A74V, I101L
B26: FJ1427_P035MP02C12 (VHH)
VHH: EVQLVESGGGSVQAGGSLRLSCAASGRTFSDYTMGWFRQAPGKEREFVVAITGTGHTTDMPDSVEGRFTISRDNAKNTIYLDMKNLKPGDTAVYYCASARGLPVTPLGDIIYWGEGTLVTVSS
B27: FJ1427_P035MP02F11 (VHH)
VHH: EVQLVESGGGLVQAGGSLRLSCAASGRDFSSYAMGWFRQAPGKEREFVVAITWTKRSTDFPDSVKGRFTISRDNAKNTVYLDMNSLKPEDTAVYYCASARGLPVTPLGDIIYWGEGTLVTVSS
B28: FJ1427_P035MP02G11 (VHH)
VHH: B27 VHH with E1Q, V2L
B29: FJ1427 P035MP02F12 (VHH)
VHH: QLQLVESGGGLVQTGTSLRLSCAASGHTSRINAMGWFRQFPGKEREFVAAISRNGGSTVYVDSVKGRFTISRDNAKSTVYLQMNSLKPEDTAVYYCTATDAVGWTTRWMTADFGFWGQGTQVTVSS
B30: FJ1427_P035MP02E12 (VHH)
VHH: QVQLQESGGGLVQAGGSMRLSCAASGRTFSNYVIAWFRQAPGKEREFVGAITQTGRGTFYASSVEGRFTLSRLNDQSTVYLQMNSLNPEDTGVYYCSAPRSGRAGTRNQMDYEYWGQGTQVTVSS
B31: FJ1427_P035MP02D12 (VHH)
VHH: QVQLVESGGGLVQAGGSLTLSCAASGGAFSSDAKAWFRQAPGKEREFVAAITWAGRGTDYADSVKGRFTITRDNAKATVHLQMNSLKPEDTAVYYCALNPRGVIGPAFRNSNHYTYWGQGTQVTVSS
B32: FJ1427 P035MP03E01 (VHH)
VHH: B13 VHH with P17S
B33: FJ1427_P035MP03A02 (VHH)
VHH: B13 VHH with P17S, K76E, L82Q, V93I
B34: FJ1427_P035MP03G01 (VHH)
VHH: B13 VHH with Q1E, P17S, S85R, L86V, M99R, D110A

Molecular target: T1, mouse IL-2Rβ (mouse)
Test: P.E. ELISA, coated protein

| P.E. binding ELISA OD | Binder |
| --- | --- |
| 0.049 OD450 nm | B1 |
| 0.051 OD450 nm | B2 |
| 0.049 OD450 nm | B3 |
| 0.048 OD450 nm | B4 |
| 0.049 OD450 nm | B5 |
| 0.048 OD450 nm | B6 |
| 0.048 OD450 nm | B7 |
| 0.049 OD450 nm | B8 |
| 0.052 OD450 nm | B9 |
| 0.048 OD450 nm | B10 |
| 0.048 OD450 nm | B11 |
| 0.048 OD450 nm | B12 |
| 0.048 OD450 nm | B13 |
| 0.049 OD450 nm | B14 |

Molecular target: T1, mouse IL-2Rβ (mouse)
Test: P.E. binding ELISA on coated protein

| P.E. binding ELISA OD | Binder |
| --- | --- |
| 0.047 OD450 nm | B15 |
| 0.049 OD450 nm | B16 |
| 0.049 OD450 nm | B17 |
| 0.048 OD450 nm | B18 |
| 0.05 OD450 nm | B19 |
| 0.048 OD450 nm | B20 |
| 0.051 OD450 nm | B21 |
| 0.068 OD450 nm | B22 |
| 0.048 OD450 nm | B23 |
| 0.05 OD450 nm | B24 |
| 0.048 OD450 nm | B25 |
| 0.047 OD450 nm | B26 |
| 0.047 OD450 nm | B27 |
| 0.049 OD450 nm | B28 |
| 0.048 OD450 nm | B29 |
| 0.048 OD450 nm | B30 |
| 0.046 OD450 nm | B31 |
| 0.049 OD450 nm | B32 |
| 0.052 OD450 nm | B33 |
| 0.049 OD450 nm | B34 |
